Laboratory results reported in IntAct's records for PubMed 34039996.

B1: Plexin-A4 (Mus musculus), Q80UG2 (parent)
chain: MKAMPWNWTCLLSHLLVVGMGSSTLLPRQPPQLSQKPSFVTFRGEPAEGFNHLVVDERTGHIYLGAVNRIYKLSSDLKVLVTHQTGPDEDNPKCYPPRIVQTCNEPLASTNNVNKMLLIDYKENRLIACGSLYQGICKLLRLEDLFKLGEPFHKKEHYLSGVNESGSVFGVIVSYSNFDDKLFIATAVDGKPEYFPTISSRKLTKNSEADGMFAYVFHDEFVASMIKIPSDTFTVIPDFDIYYVYGFSSGNFVYFLTLQPEMVSPPGSTTKEQVYTSKLVRLCKEDTAFNSYVEVPIGCERNGVEYRLLQAAYLSKAGAVLGRTLGVRPDDDLLFTVFSKGQKRKMKSLDESALCIFILKQINDRIKDRLQSCYRGEGTLDLAWLKVKDIPCSSALLTIDDNFCGLDMNAPLGVSEMVRGIPVFTEDRDRMTSVIAYVYKNHSLAFVGTKSGKLKKIRVDGPKGNALQYETVQVVDSGPVLRDMAFSKDHEQLYIMSERQLTRVPVESCGQYRSCGECLGSGDPHCGWCVLHNTCTRKERCERSREPRRFASEMKQCVRLTVHPNNISVSQYNVLLVLETYNVPELSAGVNCTFEDLSEMDGLVIGNQIQCYSPAAKEVPRIITENGDHHVVQLQLKSKETGMTFASTSFVFYNCSVHNSCLSCVESPYRCHWCKYRHVCTHDPNTCSFQEGRVKLPEDCPQLLRVDKILVPVEVIKPITLKAKNLPQPQSGQRGYECILNIQGIEQRVPALRFNSSSVQCQNTSYSYEGMEINNLPVELTVVWNGHFNIDNPAQNKVYLYKCGAMRESCGLCLKADPDFECGWCQSPGQCTLRQHCPAHESRWLELSGANSKCTNPRITEIIPVTGPREGGTKVTIRGENLGLEFRDIASHVKVAGVECSPLVDGYIPAEQIVCEMGEAKPSQHAGFVEICVAVCRPEFMARSSQLYYFMTLTLADLKPNRGPMSGGTQVTITGTNLNAGSNVVVMFGSQPCLFHRRSPSYIICNTTSSEEVLDMKVTVQVDRARIRQDLVFQYVEDPTIVRIEPEWSIVSGNTPIAVWGTHLDLIQNPQIRAKHGGKEHINICEVLNATEMTCQAPALALGPDHQSDLTERPEEFGFILDNVQSLLILNKTNFTYYPNPVFEAFSPSGILELKPGTPIILKGKNLIPPVAGGNVKLNYTVLVGEKPCTVTVSDVQLLCESPNLIGRHKVMARVGGMEYSPGMVYIAPDSPLSLPAIVSIAVAGGLLIIFIVAVLIAYKRKSRESDLTLKRLQMQMDNLESRVALECKEAFAELQTDIHELTSDLDGAGIPFLDYRTYTMRVLFPGIEDHPVLRDLEVPGYRQERVEKGLKLFAQLINNKVFLLSFIRTLESQRSFSMRDRGNVASLIMTVLQSKLEYATDVLKQLLADLIDKNLESKNHPKLLLRRTESVAEKMLTNWFTFLLYKFLKECAGEPLFSLFCAIKQQMEKGPIDAITGEARYSLSEDKLIRQQIEYKTLVLSCVSPDNVNSPEVPVKILNCDTITQVKEKILDAIFKNVPCSHRPKAADMDLEWRQGSGARMILQDEDITTKIENDWKRLNTVAHYQVPDGSVVALVSKQVTAYNAVNNSTVSRTSASKYENMIRYTGSPDSLRSRTPMITPDLESGVKLWHLVKNHEHGDQKEGDRGSKMVSEIYLTRLLATKGTLQKFVDDLFETIFSTAHRGSALPLAIKYMFDFLDEQADKHGIHDPHVRHTWKSNCLPLRFWVNMIKNPQFVFDIHKNSITDACLSVVAQTFMDSCSTSEHRLGKDSPSNKLLYAKDIPSYKNWVERYYSDIGKMPAISDQDMNAYLAEQSRMHMNEFNTMSALSEIFSYVGKYSEEILGPLDHDDQCGKQKLAYKLEQVITLMSLDS
B2: Neuropilin-1 (Mus musculus), P97333 (parent)
chain: MERGLPLLCATLALALALAGAFRSDKCGGTIKIENPGYLTSPGYPHSYHPSEKCEWLIQAPEPYQRIMINFNPHFDLEDRDCKYDYVEVIDGENEGGRLWGKFCGKIAPSPVVSSGPFLFIKFVSDYETHGAGFSIRYEIFKRGPECSQNYTAPTGVIKSPGFPEKYPNSLECTYIIFAPKMSEIILEFESFDLEQDSNPPGGMFCRYDRLEIWDGFPEVGPHIGRYCGQKTPGRIRSSSGVLSMVFYTDSAIAKEGFSANYSVLQSSISEDFKCMEALGMESGEIHSDQITASSQYGTNWSVERSRLNYPENGWTPGEDSYKEWIQVDLGLLRFVTAVGTQGAISKETKKKYYVKTYRVDISSNGEDWISLKEGNKAIIFQGNTNPTDVVLGVFSKPLITRFVRIKPVSWETGISMRFEVYGCKITDYPCSGMLGMVSGLISDSQITASNQADRNWMPENIRLVTSRTGWALPPSPHPYTNEWLQVDLGDEKIVRGVIIQGGKHRENKVFMRKFKIAYSNNGSDWKTIMDDSKRKAKSFEGNNNYDTPELRTFSPLSTRFIRIYPERATHSGLGLRMELLGCEVEAPTAGPTTPNGNPVDECDDDQANCHSGTGDDFQLTGGTTVLATEKPTIIDSTIQSEFPTYGFNCEFGWGSHKTFCHWEHDSHAQLRWSVLTSKTGPIQDHTGDGNFIYSQADENQKGKVARLVSPVVYSQSSAHCMTFWYHMSGSHVGTLRVKLRYQKPEEYDQLVWMVVGHQGDHWKEGRVLLHKSLKLYQVIFEGEIGKGNLGGIAVDDISINNHISQEDCAKPTDLDKKNTEIKIDETGSTPGYEGEGEGDKNISRKPGNVLKTLDPILITIIAMSALGVLLGAVCGVVLYCACWHNGMSERNLSALENYNFELVDGVKLKKDKLNPQSNYSEA

Variants of: B1
Conditions: with nrp1_mouse Nrp1, P97333
In the case of K343E, the “effect of a mutation on the interaction” value is reported as “with no effect”.

Variants of: B2
Conditions: with plxa4_mouse Plxna4, Q80UG2
For S251E, the “effect of a mutation on the interaction” value was “with no effect”.
With H74A the “effect of a mutation on the interaction” value was “with no effect”.
With A252E the “effect of a mutation on the interaction” value was “with no effect”.
With E128R the “effect of a mutation on the interaction” value was “with no effect”.
